According to patent US20230059489A1 (Pfizer, published 2023):

T1: mouse FLT3 (mFlt3) (mouse (printed as mFlt3), UniProt Q00342 28-544, limits assumed)
T1 construct: Construct not described
T1 sequence (looked up): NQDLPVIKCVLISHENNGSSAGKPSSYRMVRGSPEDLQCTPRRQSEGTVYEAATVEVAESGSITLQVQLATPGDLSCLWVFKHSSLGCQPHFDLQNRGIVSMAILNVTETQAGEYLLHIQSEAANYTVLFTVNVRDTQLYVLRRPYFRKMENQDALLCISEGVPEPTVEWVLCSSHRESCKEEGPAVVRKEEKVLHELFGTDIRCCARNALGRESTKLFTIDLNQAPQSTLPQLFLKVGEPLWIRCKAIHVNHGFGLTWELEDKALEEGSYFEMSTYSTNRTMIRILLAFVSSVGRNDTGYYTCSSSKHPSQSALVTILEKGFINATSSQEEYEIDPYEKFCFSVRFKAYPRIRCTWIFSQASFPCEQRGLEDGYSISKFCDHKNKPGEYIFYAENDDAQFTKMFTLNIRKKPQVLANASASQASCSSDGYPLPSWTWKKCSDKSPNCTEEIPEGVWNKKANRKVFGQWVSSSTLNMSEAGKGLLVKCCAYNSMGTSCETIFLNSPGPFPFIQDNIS

T2: human FLT3 (hFLT3) (human, UniProt P36888 27-543)
T2 construct: also called huFlt3; Fms-Like Tyrosine Kinase 3
T2 sequence (looked up): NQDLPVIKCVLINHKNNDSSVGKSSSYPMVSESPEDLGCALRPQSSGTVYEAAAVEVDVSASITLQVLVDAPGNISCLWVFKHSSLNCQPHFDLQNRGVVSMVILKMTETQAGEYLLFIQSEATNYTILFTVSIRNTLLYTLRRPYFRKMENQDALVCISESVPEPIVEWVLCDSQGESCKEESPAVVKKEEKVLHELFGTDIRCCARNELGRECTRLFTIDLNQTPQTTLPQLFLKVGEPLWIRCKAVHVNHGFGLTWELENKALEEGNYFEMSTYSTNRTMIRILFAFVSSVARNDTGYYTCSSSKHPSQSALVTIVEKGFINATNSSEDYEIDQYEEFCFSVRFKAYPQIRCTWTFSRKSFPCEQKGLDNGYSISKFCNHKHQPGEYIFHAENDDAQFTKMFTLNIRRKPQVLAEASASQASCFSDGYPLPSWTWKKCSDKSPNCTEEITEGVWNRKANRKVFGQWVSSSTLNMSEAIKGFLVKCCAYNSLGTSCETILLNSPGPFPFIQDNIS

B1: P7F9 (IgG format) (antibody, V domains shown)
VH: EVQLLESGGGLVQPGGSLRLSCAASGFTFSSYAMSWVRQAPGKGLEWVSAIGGSGGSTYYADSVKGRFTISRDNSKNTLYLQMNSLRAEDTAMYYCARDYYAFSDPAYGGMDVWGQGTLVTVSS
VL: NFMLTQPHSVSESPGKTVTISCTRSSGSIASNYVQWYQQKPGQAPVLVVYDDSDRPSGIPERFSGSNSGNTATLTISRVEAGDEADYYCQVWDSSSDHWVFGGGTKLTVL
notes: IgG format, captured by anti-human Fc
B2: P5A3 (IgG format) (antibody, V domains shown)
VH: QVQLVQSGAEVKKPGSSVKVSCKASGGTFSSYYIGWVRQAPGQGLEWMGGIIPWFGTANYAQKFQGRVTITADKSTNTAYMELSSLRSEDTAVYYCAADHHDSPSGYTSGGFDVWGQGTLVTVSS
VL: QSALTQPASVSGSPGQSITISCTGTSSDVGGYNYVSWYQQHPGKAPKLMIYEVSKRPSGVPDRFSGSKSGNTASLTVSGLQAEDEADYYCSSYAGSNTVVFGGGTKLTVL
notes: as for B1
B3: P9B5 (IgG format) (antibody, V domains shown)
VH: EVQLLESGGGLVQPGGSLRLSCAASGFIFASYAMSWVRQAPGKGLEWVSEISSSGGSTTYADSVKGRFTISRDNSKNTLYLQMNSLRAEDTAVYYCARDRVMAGLGYDPFDYWGQGTLVTVSS
VL: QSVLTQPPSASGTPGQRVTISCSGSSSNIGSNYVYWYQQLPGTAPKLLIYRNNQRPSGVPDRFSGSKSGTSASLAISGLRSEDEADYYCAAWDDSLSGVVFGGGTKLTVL
notes: as for B1
B4: P7H3 (IgG format) (antibody, V domains shown)
VH: EVQLLESGGGLVQPGGSLRLSCAASGFTFSSYAMHWVRQAPGKGLEWVSAISGSGGSTYYADSVKGRFTISRDNSKNTLYLQMNSLRAEDTAVYYCARGTRWWWGDAFDHWGQGTLVTVSS
VL: QSVLTQPPSVSVAPGKTARITCGGNNIGSKSVHWYQQKPGQAPVLVIYYDSDRPSGIPERFSGSNSGNTATLTISRVEAGDEADYYCQVWDSSTAWVFGGGTKLTVL
notes: as for B1

How the values were obtained:
[1] = target: T1, mouse FLT3 (mFlt3); assay: SPR, Table 6, IgG format, mFlt3 column; set-up for mFlt3 not described
[2] = target: T2, human FLT3 (hFLT3); assay: SPR (Biacore T200), 37 C; IgG captured on anti-human Fc, hFLT3 as analyte
Protocol: All experiments were performed on a Biacore T200 surface Plasmon resonance biosensor (GE Lifesciences, Piscataway N.J.).
The sensor chip preparation was performed at 25° C. with a running buffer of 10 mM HEPES, 150 mM NaCl, 0.05% (v/v) Tween-20, pH 7.4. An anti-human Fc sensor chip was made by activating all flow cells of a Biacore CM4 sensor chip with a 1:1 (v/v) mixture of 400 mM EDC and 100 mM NHS for 7 minutes, at a flow rate of 10 μL/min. An anti-human Fc reagent (Goat Anti-Human IgG Fc, Southern Biotech Catalog #2081-01) was diluted to 30 μg/mL in 10 mM Sodium Acetate pH 4.5 and injected on all flow cells for 7 minutes at 20 μL/min. All flow cells were blocked with 100 mM ethylenediamine in 150 mM Borate buffer pH 8.5 for 7 minutes at 10 μL/min.
The experiments were performed at 37° C. using a running buffer of 10 mM HEPES, 150 mM NaCl, 0.05% (v/v) Tween-20, pH 7.4, 1 mg/mL BSA. FLT3 antibodies were captured from undiluted supernatants onto downstream flow cells (flow cells 2, 3 and 4) at a flow rate of 10 μL/min for 1 minute. Different antibodies were captured on each flow cell. Flow cell 1 was used as a reference surface. Following capture of FLT3 antibodies, analyte (buffer, hFLT3) was injected at 30 μL/min on all flow cells for two minutes. After the analyte injection, dissociation was monitored for 10 minutes followed by regeneration of all flow cells with three 1-minute injections of 75 mM Phosphoric Acid. For each captured FLT3 antibody, the following analyte injections were performed: buffer, 11 nM hFLT3, 33 nM hFLT3, 100 nM hFLT3 and 300 nM hFLT3. Buffer cycles were collected for each captured FLT3 antibody for double-referencing purposes (double-referencing as described in Myszka, D. G. Improving biosensor analysis. J. Mol. Recognit. 12, 279-284 (1999)). The double-referenced sensorgrams were fit globally to a simple 1:1 Langmuir with mass transport binding model.

Binder	Kd [1] [nM]	Kd [2] [nM]	koff [2] [s⁻¹]	kon [2] [M⁻¹ s⁻¹]	t1/2 [2] [min]
B1	13.8	12	0.0013	110000	8.9
B2	19.3	102	0.01	98000	1.2
B3	1.5	11	0.00047	42000	24.4
B4	0.9	2	0.0018	990000	6.6
